Experimental data from CN116981688A (HELMHOLTZ ZENTRUM MUENCHEN DEUTSCHES FORSCHUNGSZENTRUM FUR …, dated 2023).

Assays:
[1] = biological target: T1, 人PRDX4 (存在于癌细胞的细胞表面上) (human) (UniProt Q13162); assay: flow cytometry on ES-2 cells, isotype control
T1 sequence: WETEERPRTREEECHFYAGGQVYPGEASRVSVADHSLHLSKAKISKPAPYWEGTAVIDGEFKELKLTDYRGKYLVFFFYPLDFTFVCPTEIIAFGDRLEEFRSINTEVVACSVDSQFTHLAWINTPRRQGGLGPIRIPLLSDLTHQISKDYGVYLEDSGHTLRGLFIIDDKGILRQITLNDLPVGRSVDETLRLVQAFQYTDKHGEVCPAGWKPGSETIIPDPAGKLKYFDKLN

[2] = biological target: T1, 人PRDX4 (存在于癌细胞的细胞表面上) (human); assay: flow cytometry on ES-2w cells transfected with control siRNA
[3] = biological target: T1, 人PRDX4 (存在于癌细胞的细胞表面上) (human); assay: flow cytometry on ES-2 cells with PRDX4-specific siRNA (4BC_KO) against control siRNA cells
PRDX4 (内源性, 细胞裂解物中) = biological target: T2, PRDX4 (内源性, 细胞裂解物中) (human, UniProt Q13162 38-271); assay: immunoprecipitation with 11F2 beads from ES-2 lysate, western blot
T2 construct: Endogenous PRDX4 in RIPA lysates of human cell lines (ES-2 and others), precipitated with 11F2 beads; also called 内源性PRDX4
T2 sequence: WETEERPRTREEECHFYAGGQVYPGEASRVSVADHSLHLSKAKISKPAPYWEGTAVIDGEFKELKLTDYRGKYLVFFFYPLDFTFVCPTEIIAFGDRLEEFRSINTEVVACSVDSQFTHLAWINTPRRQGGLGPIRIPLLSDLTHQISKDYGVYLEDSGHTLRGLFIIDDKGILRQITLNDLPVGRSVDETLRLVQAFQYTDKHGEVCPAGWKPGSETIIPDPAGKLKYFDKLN

[4] = biological target: T1, 人PRDX4 (存在于癌细胞的细胞表面上) (human); assay: flow cytometry on ES-2 cells transfected with PRDX4-specific siRNA (population 4BC_KO)

Molecule | 平均值 (mean fluorescence) [1] | 平均值 (mean fluorescence) [2] | percent of 11F2 binding against control siRNA cells [3] [%] | binding result (PRDX4 (内源性, 细胞裂解物中)) | 平均值 (mean fluorescence) [4]
同种型抗体 (antibody) | 159 |  |  |  | 
抗体11F2 (antibody, V domains shown, Monoclonal antibody detected with goat anti-rat IgG secondary antibody, so rat constant regions; also called PRDX4特异性抗体11F2; PRDX4抗体11F2) VH: QVQLQQSGAELVKPGTSVKLSCKASGYTFSTHHMHWIKETTGQGLEWIGIINPGNGGTKYNVKFKGKATLTVDSSSSTAFMQLGSLTPEDSAVYYCARGNPASFDYWGQGVMVTVSS VL: DIQMTQSPSFLSASVGDRVTINCKASQNIYKYLNWYQQKLGEAPKRLIYNTNNLETDIPSRFSGSGSGTDYTFTISSLQPEDFATYFCLQHSNFPFTFGSGTKLEIKR |  | 1910 | 50 | binds | 874
